Measurements: publication PMC2699419 (2007)

Legend:
[1] = molecular target: T1, GM-CSF receptor alpha chain (C57BL/6 form, Gly227; on Ba/F3 cells expressing beta chain) (Mus musculus, UniProt Q00941); experiment: flow cytometry cell binding, non-linear regression
T1 chain: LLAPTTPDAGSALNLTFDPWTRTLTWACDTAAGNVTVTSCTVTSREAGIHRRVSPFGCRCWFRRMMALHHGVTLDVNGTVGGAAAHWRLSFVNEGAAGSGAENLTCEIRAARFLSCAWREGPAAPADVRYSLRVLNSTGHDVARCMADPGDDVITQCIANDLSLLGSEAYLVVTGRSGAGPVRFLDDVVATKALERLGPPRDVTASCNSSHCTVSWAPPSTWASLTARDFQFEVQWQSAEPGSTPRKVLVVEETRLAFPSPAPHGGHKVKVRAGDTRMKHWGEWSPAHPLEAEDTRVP

[2] = molecular target: T2, GM-CSF receptor alpha chain (Balb/c form, Asp227; on Ba/F3 cells expressing beta chain) (Mus musculus, UniProt Q00941); experiment: flow cytometry cell binding, non-linear regression
T2 chain: T1 chain

Kd [1]: 19.6 nM
Kd [2]: 15.6 nM
B1: GM-CSF-Fc fusion (GM-Fc) (protein)
chain: APTRSPITVTRPWKHVEAIKEALNLLDDMPVTLNEEVEVVSNEFSFKKLTCVQTRLKIFEQGLRGNFTKLKGALNMTASYYQTYCPPTPETDCETQVTTYADFIDSLKTFLTDIPFECKKPGQK
modifications: GM-CSF fused to mutated human IgG1 Fc, Ba/F3 cells co-expressing beta chain
